Test: soluble on expression in E. coli; label from the status in PepcDB or PDB records

Sequence: MLKSAFILASAPLFFTLAACSGESGTQVNTASAPATQVSRNIGSTVKNRGKLICGVSGELPGFSFVGTDAKYSGIDVDVCRAVTAALFDNPDAVEFRNLNTKERFTALQTGEIDLLSRNTTWTMSRETSVGLQFAPVIFYDGQAIMVSKNSGIKSLADLKNKAICTQTGTTTEQNLADQMRKRSITYKPVVFEDVNITFATYAEGRCDGVTTDRSALISRRTTLPKPEDNIILDELLSSEPLAPAVAKGDPQWNDIVKWVVYSLVKAEELGINSQNIAQLTNSNDPDIKRFLGTEGNLGEGLGLTNDFAARIVKHVGNYGEVYDRNLGGKTKLNLPRGQNQLAIKGGLLYSPPFR
- soluble on expression in E. coli: not soluble

Sequence: MTSALPRPAPSPYARRKTALVIGAGFGGLALGIRLQSLGFDTTILERLDGPGGRAYQKRTPDGYVFDMGPTVLTVPHFIEELFALERDRAGLDAPDYPPEVLSGERVKEGVSGGPHTSRYVTLVPILPFYRIVFHDGTYFDYDGDPESTRRQIAELAPGDLAGYERFHADAEAIFRRGFLELGYTHFGDVPTMLRVVPDLLKLDAVRTLFSFTSKYFQSDKLRQVFSFETLLVGGNPLSVPAIYAMIHFVEKTWGIHYAMGGTGALVRGLVQKFEELGGAIRYGAGVDEVLVDGNLPGKRTARGVRLESGEELRADLVASNGDWANTYLKRVRPSARLVNSDLRVKAASESMSLLVVYFGFRGGDDLPLKHHNILLGPRYEALLSEIFGTKRLGEDFSQYLHVPTLTDPALAPAGHHAAYTLVPVPHNGSGIDWDVEGPKLAEAALADIERRGLIPGLRERLTHFEFITPDYFAGTLDSYLGNAFGPEPRLVQSAFFRPHNRSEDLHNFYLVGAGAQPGAGTPSVMMSAKMTARLIAEDFGIHADIRRLEHHHHHH
- soluble on expression in E. coli: not soluble

Sequence: SLPSINALLQAEVLSRQITSPVSGINGDIRAKKIASIADVCESMKEQLLVLVEWAKYIPAFCELPLDDQVALLRAHAGEHLLLGATKRSMVFKDVLLLGNDYIVPRHCPELAEMSRVSIRILDELVLPFQELQIDDNEYAYLKAIIFFDPDAKGLSDPGKIKRLRSQVQVSLEDYINDRQYDSRGRFGELLLLLPTLQSITWQMIEQIQFIKLFGMAKIDNLLQEMLLGG
- soluble on expression in E. coli: soluble

Sequence: MGSDKIHHHHHHMENYLGRLWTKAQLSEQLRKIAISLPSFIKKGSDYICTRCSSSVAKNCQLPTGNYYCRECIVFGRVTSNENLYYFPQKTFSKTNSLKWKGELTPYQNEVSEELLKGISSKENLLVHAVTGAGKTEMIYHSVAKVIDTGGSVCIASPRIDVCLELYKRLSNDFRCAITLMHGESPSYQRSPLTIATTHQLLKFYHAFDLLIVDEVDAFPYVDNPILYQGVKQALKENGTSIFLTATSTTELERKVARKELKKLHLARRFHANPLVIPEMVWVSGIQKSLQTQKLPPKLYQLINKQRQTRYPLLLFFPHISEGQVFTEILRQAFPMEKIGFVSSKSTSRLKLVQDFRDNKLSILVSTTILERGVTFPSVDVFVIQANHHLFTKSSLVQISGRVGRALERPEGLLYFLHDGKSKSMHQAIKEIKNMNHIGGF
- soluble on expression in E. coli: not soluble

Sequence: MLNIFCPHCGELRSEEEFHAKGQAHIPRPLDPNACSDEEWGDYMFFRDNPRGLHHELWVHAAGCRKYFNVTRHTVTYEILETYLIGEQPSVVADGEKKPAVQGEPA
- soluble on expression in E. coli: not soluble

Sequence: MGLSHKFQVKQFVEISPYSQSRLRHEQPQTPIHSDITTYHCHRGQFDIVAGGLPCQGTSNAGNRQGLDDPRSALWAEQFRIIESDRPAIALIENPTGLLYRGLEQIICDLDSIGYMGEWNCISAQQVGLPHQRKRIFIIAYSNGLFNQVVPAPWSNQIGNHITQVRLSLETRSYQPGISKVASRIPIGVAKNIPGNYDARRAYGLSCSPRQAAVAWKRIDYLCSLLEHHHHHH
- soluble on expression in E. coli: not soluble

Sequence: GPGSMADNEEVPPSGPRMTREETDELVRRLYDQQMERAARREEERQRQLARPFCSSRRIKKDEEENLVRRIYDVQRERFQQSKEERERRLTLELQSKDKKLPESEIQDQVDRIYNQEVAKSKARREELQKRYLPEVPPKTIGKKQLKESVERLFRVDYVKRDEELFKKHVYPYDPPTTKISRTDVEAMANRLSRRGS
- soluble on expression in E. coli: not soluble

Sequence: MGSSHHHHHHSSGLVPRGSHGLVPRGSHMSDDMSMGLPSSAGEHGVLRSMQEVAMSSQEASKMLRTYNIAWWGNNYYDVNELGHISVCPDPDVPEARVDLAQLVKTREAQGQRLPALFCFPQILQHRLRSINAAFKRARESYGYNGDYFLVYPIKVNQHRRVIESLIHSGEPLGLEAGSKAELMAVLAHAGMTRSVIVCNGYKDREYIRLALIGEKMGHKVYLVIEKMSEIAIVLDEAERLNVVPRLGVRARLASQGSGKWQSSGGEKSKFGLAATQVLQLVETLREAGRLDSLQLLHFHLGSQMANIRDIATGVRESARFYVELHKLGVNIQCFDVGGGLGVDYEGTRSQSDCSVNYGLNEYANNIIWAIGDACEENGLPHPTVITESGRAVTAHHTVLVSNIIGVERNEYTVPTAPAEDAPRALQSMWETWQEMHEPGTRRSLREWLHDSQMDLHDIHIGYSSGIFSLQERAWAEQLYLSMCHEVQKQLDPQNRAHRPIIDELQERMADKMYVNFSLFQSMPDAWGIDQLFPVLPLEGLDQVPERRAVLLDITCDSDGAIDHYIDGDGIATTMPMPEYDPENPPMLGFFMVGAYQEILGNMHNLFGDTEAVDVFVFPDGSVEVELSDEGDTVADMLQYVQLDPKTLLTQFRDQVKKTDLDAELQQQFLEEFEAGLYGYTYLEDE
- soluble on expression in E. coli: soluble

Sequence: MGSDKIHHHHHHMDKGKSVKSTEKSVGMPPKTPKTDNNAHVDNEFLILQVNDAVFPIGSYTHSFGLETYIQQKKVTNKESALEYLKANLSSQFLYTEMLSLKLTYESALQQDLKKILGVEEVIMLSTSPMELRLANQKLGNRFIKTLQAMNELDMGEFFNAYAQKTKDPTHATSYGVFAASLGIELKKALRHYLYAQTSNMVINCVKSVPLSQNDGQKILLSLQSPFNQLIEKTLELDESHLCTASVQNDIKAMQHESLYSRLYMS
- soluble on expression in E. coli: not soluble

Sequence: PTVLAVTDEELTIRFVSPAIERVLGYDMESLVGTNWLDLVHPADTDRVLATLTGEREDDGTEYRFRNADGDWVWLETIVSSDTE
- soluble on expression in E. coli: not soluble

Sequence: MRDHRPTATDELIQASKLKQIQEHAKAILLINRQLQDILPKGLKTQVRAANVRGGNLVLEAASAALKMKVDYERLHILTQLRQNGFGHLISIEVRVNPELYRQSKITSEDARAANPRPPLSEHAAHVLLAIADQASDKVKKRLQSLARLAKANQKDD
- soluble on expression in E. coli: not soluble

Sequence: MSHHPDLSVSLDQLLLRKEVRVRQQGEWLKRHSLPLVSFTVNMPGAVKLNAASQTVMDAGMRAIQELCQKTGWRQVACQLLVEKTGPEAFVVIQAPSASMLKKAMMKIEREHPLGRLMDLDVIDVDGHIISRQGAQLPRRRCLLCERDAVICARSRRHSVEALLAKIEEMTHDYSCCA
- soluble on expression in E. coli: soluble

Sequence: MNIEIKDTLISEEQLQEKVKELALQIERDFEGEEIVVIAVLKGSFVFAADLIRHIKNDVTIDFISASSYGNQTETTGKVKLLKDIDVNITGKNVIVVEDIIDSGLTLHFLKDHFFMHKPKALKFCTLLDKPERRKVDLTAEYVGFQIPDEFIVGYGIDCAEKYRNLPFIASVVTEESYNLKSR
- soluble on expression in E. coli: soluble

Sequence: MGSDKIHHHHHHMELRPDLLFLDVELPDVLGLNLLSEMRDEVLWDMKVVFYTSYDKYLLQALRESAFDFLLKPFETGDLRVVIERYRKAVASIPATPSSSFSSSVSALMPQQGMFMISTVTGFKLLRLEEIGYFEYLKDKRQWQVVLFNQTRLNLKRNTKAEDIIGYSQAFIQISQSAIVNVNYLAMIDGKCCQLYPPFHDKSDLVISRSFLKGLQDRFFVL
- soluble on expression in E. coli: not soluble

Sequence: MSLARQNYHDEVEAAVNKQINVELYASYVYLSMSAHFDRDDIALRNIAKFFKEQSDEERGHATELMRIQAVRGGRVAMQNIQKPEKDEWGTVLEAFEAALALERANNASLLKLHGIAEQRNDAHLTNYIQEKYLEEQVHSINEFARHIANIKRAGPGLGEYLFDKEEFSD
- soluble on expression in E. coli: not soluble

Sequence: MKKIVTATIATAGLATIAFAGHDAQAAEQNNNGYNSNDAQSYSYTYTIDAQGNYHYTWTGNWNPSQLTQNNTYYYNNYNTYSYNNASYNNYYNHSYQYNNYTNNSQTATNNYYTGGSGASYSTTSNNVHVTTTAAPSSNGRSISNGYASGSNLYTSGQCTYYVFDRVGGKIGSTWGNASNWANAAASSGYTVNNTPKVGAIMQTTQGYYGHVAYVEGVNSNGSVRVSEMNYGHGAGVVTSRTISANQAGSYNFIHLEHHHHHH
- soluble on expression in E. coli: not soluble

Sequence: SLQVDASGHQILLNYRKERSLQEFVPQVSLTEVLTGKINANTVKNKIVLIGTTAESFEDYSFTPNITNQGAIRKYQVLSLQAQMISQLLSAALDGRSLIWAWSVWQETIWIWGWSLTGSLLAWYIR
- soluble on expression in E. coli: not soluble

Sequence: MGSDKIHHHHHHMLLPLSSQNVIQHLQAADLCSSEDGKSDIVELPISKKNYNLVVNLADNRKLLVKQERGVENDGILHELFNEWLFHQLLQKFPILGNISAIAPLVVHFDEENSILVRSYLSEYLDLAEFYQNPNVFPKEIAAAIGTTLAALHRTTFQGKEYRDFMATAPQGQFRYHFYNPAQGISSLNPEIFGRIPTEALKFHVLYQCYESLEAAIADLAYEWDACCLTHNDLKLNNILIHSRWNQLDNCLVQLIDWEACTWGDPAFDLGTILASYLEIWLESLVVDPTLELAESLELVMIPLEEIQPSLVALLQAYLQAFPMILEYHPNFLVRVIKFIGLALIHQIQDKINNCKLFDNSHLYMLQVAKNLLTMPEQSILSIFGISEAEILSPVAKVPQVSHPEKEKQLVPLYYEKTRLRGC
- soluble on expression in E. coli: not soluble

Sequence: MKYQVLLYYKYTTIEDPEAFAKEHLAFCKSLNLKGRILVATEGINGTLSGTVEETEKYMEAMQADERFKDTFFKIDPAEEMAFRKMFVRPRSELVALNLEEDVDPLETTGKYLEPAEFKEALLDEDTVVIDARNDYEYDLGHFRGAVRPDIRSFRELPQWIRENKEKFMDKKIVTYCTGGIRCEKFSGWLLKEGFEDVAQLHGGIANYGKNPETRGELWDGKMYVFDDRISVEINHVDKKVIGKDWFDGTPCERYINCANPECNRQILTSEENEHKHLGGCSLECSQHPANRYVKKHNLTEAEVAERLALLEAVEVLEHHHHHH
- soluble on expression in E. coli: soluble

Sequence: SNAMRNKNMSTIYQTSATASAGRNGVVSTEDKLLELNLSYPKEMGGSGTATNPEQLFAVGYAACFSNAILHVAREAKVALKEAPVTATVGIGPNGQGGFALSVALAAHIALEDEQARQLVTVAHQVCPYSNAVRGNIDVQVSVNGLAL
- soluble on expression in E. coli: soluble

Sequence: MMRISEKGITLIKEFEGCSLKAYPDPGTGGDPWTIGYGWTHSVDGKPVKPGMMIDEATAERLLKTGLVGYENDVSRLVKVKLTQGQFDALVSFAYNLGARTLSTSTLLRKLNAGDYAGAADEFLRWNKAGSKVLNGLTRRREAERALFLS
- soluble on expression in E. coli: not soluble

Sequence: MSLEPTAPSLTEEDLTEVKKDALENLRVYLCEKIIAERHFDHLRAKKILSREDTEEISCRTSSRKRAGKMLDYLQENPKGLDTLVESIRREKTQNFLIQKITDEVLKLRNIKLEHLKGLKCSSCEPFPDGATNNLSRSNSDESNFSEKLRASTVMYHPEGESSTTPFFSTNSSLNLPVLEVGRTENTIFSSTTLPRPGDPGAPPLPPDLQLEEEGTCANSSEMFLPLRSRTVSREGHHHHHH
- soluble on expression in E. coli: not soluble

Sequence: AKQAAQSTFNSFHEWAKQAEAMRNPSRMDIYKIYKQDAPHSHPMSDEQQEEFLHTLKALNGKNGIEVRTQDHDSVRNKKDRNLDKYIAESPDAKRFFYRIIPKHERREDKNQGRLTIGVQPQYATQLTRAMATLIGKESAITHGKVIGPACHGQMTDSAVLYINGDVAKAEKLGEKLKQMSGIPLDAFVEHTPLSMQSLSKGLSYAESILGDTRGHGMSRAEVISDALRMDGMPFLARLKLSLSANG
- soluble on expression in E. coli: not soluble

Sequence: MSSKNTAEVILGGKVIKLGGYESEEYLQRVASYINNKITEFNKEESYRRMSAELRTDMMYLNIADDYFKAKKMADSLSLDIENKDKEIYDLKHELIAAQIKAESSAKEIKELKSEINKYQKNIVKLETELNDSKK
- soluble on expression in E. coli: soluble

Reference: the DeepSol protein solubility set
